# Measurements from paper PMC9808371, “Extracellular Galectin 4 Drives Immune Evasion and Promotes T-cell Apoptosis in Pancreatic Cancer” (Cancer Immunology Research, 2022).
# T1: human recombinant CD3ε/γ heterodimer (human, UniProt P07766 23-126; P09693 23-116)
# T1 chain 1: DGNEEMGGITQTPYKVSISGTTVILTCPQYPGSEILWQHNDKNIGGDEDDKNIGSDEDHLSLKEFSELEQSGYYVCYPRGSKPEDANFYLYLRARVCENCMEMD
# T1 chain 2: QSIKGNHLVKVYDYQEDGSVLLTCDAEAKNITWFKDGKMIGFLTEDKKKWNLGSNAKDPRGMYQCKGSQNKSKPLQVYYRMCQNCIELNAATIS
# T2: human recombinant CD3ε/δ heterodimer (human, UniProt P07766 23-126; P04234 22-105, N-linked glycosylations (sites not given))
# T2 chain 1: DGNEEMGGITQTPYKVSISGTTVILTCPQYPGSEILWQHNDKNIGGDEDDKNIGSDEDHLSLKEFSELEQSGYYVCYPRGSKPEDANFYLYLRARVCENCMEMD
# T2 chain 2: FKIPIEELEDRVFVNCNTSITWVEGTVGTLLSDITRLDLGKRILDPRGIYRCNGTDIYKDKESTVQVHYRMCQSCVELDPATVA
# B1: human recombinant galectin 4 (natural protein, UniProt P56470 1-323, looked up)
# chain: MAYVPAPGYQPTYNPTLPYYQPIPGGLNVGMSVYIQGVASEHMKRFFVNFVVGQDPGSDVAFHFNPRFDGWDKVVFNTLQGGKWGSEERKRSMPFKKGAAFELVFIVLAEHYKVVVNGNPFYEYGHRLPLQMVTHLQVDGDLQLQSINFIGGQPLRPQGPPMMPPYPGPGHCHQQLNSLPTMEGPPTFNPPVPYFGRLQGGLTARRTIIIKGYVPPTGKSFAINFKVGSSGDIALHINPRMGNGTVVRNSLLNGSWGSEEKKITHNPFGPGQFFDLSIRCGLDRFKVYANGQHLFDFAHRLSAFQRVDTLEIQGDVTLSYVQI
# notes: galectin 4 (LGALS4), Homo sapiens, cDNA NM_006149.4 recloned from pcDNA3.1-C-(k)DYK into pET-His1a (NcoI + Acc65I); The Hisx6-TEV tag was removed before use; also called gal 4; hgal 4; source: E. coli Rosetta (DE3), purified (NiNTA, tag removal with TEV protease, second NiNTA run); not shown: His6, N-terminal, cleaved
# Legend:
# [1] = target: T1, human recombinant CD3ε/γ heterodimer; test: SPR
# [2] = target: T2, human recombinant CD3ε/δ heterodimer; test: SPR
# [3] = target: T3, human recombinant CD3ε/δ heterodimer (human, UniProt P07766 23-126; P04234 22-105, N-linked glycosylations (sites not given)); test: SPR; CD3 heterodimers amine-coupled at pH 4 to CM5 chips (mouse CD3ε/δ 3,900 RU, human CD3ε/δ 9,800 RU, human CD3ε/γ 8,900 RU); gal 4 as analyte, 2-fold dilutions 16 to 0.5 μmol/L, 120 s association, 120 s dissociation; 25°C; 10 mmol/L phosphate pH 7.4, 140 mmol/L NaCl, 0.27 mmol/L KCl, 0.05% Tween 20; Biacore T-200; details: both partners purified
# T3 construct: CD3 epsilon chain, human; CD3 delta chain, human; it is probably made of the extracellular domains with vendor tags (surmise); The vendor's catalogue entry would give them; also called human CD3ε/δ; CD3δ/ε; source: bought: ACROBiosystems, CDD-H52wa-100 μg
binder,measurement,setting,value
B1,Kd,[1],~10 µM
same,Kd,[2],~1 µM
same,fold affinity against CD3γ/ε,[3],10 fold
